Bridges are numbered along the chain shown (N, C = ends). Where no end group is shown, it is not given here.

In test [1] the target is T1, human angiotensin-converting enzyme 1 (hACE1) (human, UniProt P12821 30-1256). Kind of test: enzyme inhibition assay; 0.25 nM hACE1, 10 uM fluorogenic substrate Mca-Arg-Pro-Pro-Gly-Phe-Ser-Ala-Phe-Lys(Dnp)-OH, dilutions of inhibitor; 10 mM Tris-HCl pH 7.4, 300 mM NaCl, 100 uM ZnCl2, 0.1% BSA, 0.1% DMSO. The note with it: both partners purified.
The target of test [2] is T1, human angiotensin-converting enzyme 1 …. In words: enzyme inhibition assay. The note with it: both partners purified.
Test [3] addresses T2, human angiotensin-converting enzyme 1 (human, UniProt P12821 30-1256).
T2 construct: also called hACE1; human ACE1 enzyme
In words: enzyme inhibition assay (fluorogenic substrate); 0.25 nM hACE1, 10 μM Mca-Arg-Pro-Pro-Gly-Phe-Ser-Ala-Phe-Lys(Dnp)-OH, MP 0.03 nM to 100 μM; 10 mM Tris-HCl pH 7.4, 300 mM NaCl, 100 μM ZnCl2, 0.1% BSA, 0.1% DMSO. To be noted: both partners purified.

For test [4], the target named is T3, biotinylated extracellular catalytic domain of human angiotensin-converting enzyme 2 (hACE2), produced in … (human, UniProt Q9BYF1 19-615).
T3 construct: also called biotinylated hACE2
T3 sequence (Q9BYF1 19-615): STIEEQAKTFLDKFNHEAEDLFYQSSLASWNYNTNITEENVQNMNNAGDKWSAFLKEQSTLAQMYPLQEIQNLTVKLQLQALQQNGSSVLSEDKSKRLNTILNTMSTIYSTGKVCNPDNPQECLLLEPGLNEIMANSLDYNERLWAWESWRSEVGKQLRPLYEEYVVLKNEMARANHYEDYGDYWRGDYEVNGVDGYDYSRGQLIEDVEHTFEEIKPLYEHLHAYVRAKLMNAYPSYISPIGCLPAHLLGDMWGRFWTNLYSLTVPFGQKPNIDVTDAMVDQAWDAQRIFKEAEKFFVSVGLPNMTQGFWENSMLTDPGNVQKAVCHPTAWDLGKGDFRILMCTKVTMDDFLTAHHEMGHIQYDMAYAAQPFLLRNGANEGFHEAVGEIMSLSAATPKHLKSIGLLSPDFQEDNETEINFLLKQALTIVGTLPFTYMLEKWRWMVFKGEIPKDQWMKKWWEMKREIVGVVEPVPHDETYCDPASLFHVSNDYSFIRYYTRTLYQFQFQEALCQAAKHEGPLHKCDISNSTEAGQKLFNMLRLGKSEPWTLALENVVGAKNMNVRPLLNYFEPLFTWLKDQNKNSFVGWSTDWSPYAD
Kind of test: flow cytometry on cells; yeast surface titration: yeast cells displaying the ligand incubated with soluble biotinylated hACE2 (100 pM to 3 uM), at least 1 h, room temperature (25 °C, pH 7.4); binding/display MFI, one-site fit; apparent KD. To be noted: one partner purified. For orientation: Flow cytometry measures light scatter and fluorescence of single cells or particles in a stream.

The target in test [5] is extracellular catalytic domain of human angiotensin-converting enzyme 2 (hACE2), produced in mammalian cells (human, UniProt Q9BYF1 19-615). Kind of test: ITC; MicroCal iTC200, 25 °C, 100 mM Tris pH 7.4, 200 mM NaCl; hACE2 in the cell (6 or 7 uM), peptide in the syringe (60 or 70 uM); single-site model. To be noted: both partners purified. On the technique in general: ITC needs no label: the signal is the heat of the interaction.
Chain of extracellular catalytic domain of human angiotensin-converting enzyme 2 (hACE2), produced in mammalian cells (Q9BYF1 19-615): as above

T1 sequence (P12821 30-1256): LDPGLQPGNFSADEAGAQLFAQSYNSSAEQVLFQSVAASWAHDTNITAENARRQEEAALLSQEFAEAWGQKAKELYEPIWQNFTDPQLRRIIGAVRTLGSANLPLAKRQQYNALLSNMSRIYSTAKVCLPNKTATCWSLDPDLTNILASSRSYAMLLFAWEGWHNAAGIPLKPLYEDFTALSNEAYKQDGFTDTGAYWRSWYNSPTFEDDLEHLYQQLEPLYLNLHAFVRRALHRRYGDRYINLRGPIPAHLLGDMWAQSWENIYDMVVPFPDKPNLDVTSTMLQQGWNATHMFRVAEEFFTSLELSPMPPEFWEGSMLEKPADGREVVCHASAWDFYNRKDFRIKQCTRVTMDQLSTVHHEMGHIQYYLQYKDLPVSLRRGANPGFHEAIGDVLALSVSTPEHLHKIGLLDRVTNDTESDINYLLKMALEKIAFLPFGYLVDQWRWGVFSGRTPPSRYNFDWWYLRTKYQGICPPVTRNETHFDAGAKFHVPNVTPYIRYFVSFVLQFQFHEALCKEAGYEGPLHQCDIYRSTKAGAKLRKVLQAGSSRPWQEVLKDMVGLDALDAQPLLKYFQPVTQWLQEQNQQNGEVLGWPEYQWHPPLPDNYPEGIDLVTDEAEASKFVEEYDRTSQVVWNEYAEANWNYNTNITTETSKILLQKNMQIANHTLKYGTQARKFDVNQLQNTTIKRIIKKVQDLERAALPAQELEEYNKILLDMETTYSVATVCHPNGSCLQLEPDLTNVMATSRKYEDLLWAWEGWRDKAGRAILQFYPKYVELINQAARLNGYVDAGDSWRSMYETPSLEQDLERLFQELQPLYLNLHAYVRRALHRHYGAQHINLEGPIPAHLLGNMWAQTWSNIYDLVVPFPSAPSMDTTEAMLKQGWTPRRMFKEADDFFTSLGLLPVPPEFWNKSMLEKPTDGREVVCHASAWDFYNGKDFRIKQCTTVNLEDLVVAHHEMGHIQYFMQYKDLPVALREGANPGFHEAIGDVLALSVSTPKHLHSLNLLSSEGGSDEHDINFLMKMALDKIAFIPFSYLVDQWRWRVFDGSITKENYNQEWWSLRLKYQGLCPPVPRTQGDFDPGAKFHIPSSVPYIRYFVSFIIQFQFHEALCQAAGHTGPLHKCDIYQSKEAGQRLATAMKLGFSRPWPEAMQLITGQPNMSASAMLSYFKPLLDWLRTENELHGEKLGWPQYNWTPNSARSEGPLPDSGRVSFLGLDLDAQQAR
T2 sequence (P12821 30-1256): as above

B1: synthetic 'one-ring' macrocyclic peptide GR1.1 (peptide)
peptide: ACFFIGFNRWICSG
modifications: also: one-ring macrocycle, ring type and places not given here
A word on the IC50: it is the point on the concentration scale where inhibition reaches its midpoint. A higher IC50 goes with lower potency. Turning to B1, in test [1], the IC50 was above 100 µM.

B2: DX600, disulfide-constrained cyclic peptide inhibitor of hACE2 (peptide)
peptide: GDYSHCSPLRYYPWWKCTYPDPEGGG
modifications: disulfide 6-17 (inferred)
notes: source: bought: Selleck Chemicals LLC
For orientation: Ki means the dissociation constant of the complex between target and ligand, obtained from inhibition or displacement. In test [2], B2 yielded a half-maximal inhibitory concentration (IC50) above 100 µM and an inhibition constant Ki above 100 µM.

B3: GR3.1.2, synthetic isomer 2 of the two-ring macrocyclic peptide GR3.1 (peptide)
peptide: ACFLRCHRDVKCWLWCSG
notes: also called synthetic GR3.1.2
The molecule B3 displayed a Ki in test [3] above 100 µM.

B4: yeast-displayed 'one-ring' macrocyclic peptide GR1.3 (peptide)
chain: ACEPLGFNRWICSG
modifications: also: one-ring macrocycle, closure not given here
Consider B4, for which the Kd in test [4] amounted to 0.0538 µM.

B5: GR1.1, synthetic one-ring macrocyclic peptide (peptide)
peptide: ACFFIGFNRWICSG
notes: also called synthetic GR1.1
Regarding B5, the Ki in test [3] was above 100 µM.

B6: synthetic 'two-ring' macrocyclic peptide GR3.1.2 (isomer of GR3.1) (peptide)
peptide: ACFLRCHRDVKCWLWCSG
modifications: also: two-ring macrocycle, isomer of GR3.1, ring type and connectivity not given here
Turning to B6, in test [1], the half-maximal inhibitory concentration (IC50) is above 100 µM.

B7: synthetic 'one-ring' macrocyclic peptide GR1.4 (peptide)
peptide: ACEPLGYNLFLCSG
modifications: also: one-ring macrocycle, ring type and places not given here
The term stoichiometry N denotes a count of units in the complex or per binding partner. Turning to B7, the “stoichiometry N” value in test [5] is 1.4 sites. In test [1], this molecule returned a half-maximal inhibitory concentration (IC50) above 100 µM.

B8: GR1.4, synthetic one-ring macrocyclic peptide (peptide)
peptide: ACEPLGYNLFLCSG
notes: also called synthetic GR1.4
On to B8, for which, in test [3], the inhibition constant (Ki) is above 100 µM.

The values above are taken from paper PMC13071878 (Journal of Medicinal Chemistry, 2026).
